{"source": "patent US20250268939A1", "target": "BAFF-R Liama IgG2b Fc Tag recombinant protein (Acro, Cat. No.: BAR-H5258) (UniProt Q96RJ3)", "sequence (Q96RJ3 7-71)": "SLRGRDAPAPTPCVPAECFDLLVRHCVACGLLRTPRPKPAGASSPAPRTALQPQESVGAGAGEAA", "assay": "flow cytometry; control T cells expressing only EGFRt incubated with BAFF-R llama IgG2b Fc protein at 10 ug/mL, detected with FITC-anti llama IgG"}
{"substance": "EGFRt (from UniProt P00533 334-668) (receptor)", "values": [{"measurement": "positive rate", "value": 0.65, "unit": "%"}]}
